Reference: paper PMC5912465, “The N-terminal domain of a tick evasin is critical for chemokine binding and neutralization and confers specific binding activity to other evasins” (The Journal of Biological Chemistry, 2018)

Key:
Settings in all cases: both partners purified
[1] = target: T1, N-terminally tagged P672 (P672_RHIPU), glycosylated (Rhipicephalus pulchellus, UniProt L7MC74 22-125); assay: BLI
T1 construct: source: HEK293F, transiently transfected, purified from culture supernatant (nickel IMAC, size exclusion chromatography)
T1 sequence: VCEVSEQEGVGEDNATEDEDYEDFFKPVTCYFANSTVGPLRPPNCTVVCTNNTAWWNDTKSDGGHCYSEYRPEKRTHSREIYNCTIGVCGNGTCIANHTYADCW

[2] = target: T2, P672 with residues Val-1—Thr-16 truncated (Rhipicephalus pulchellus, UniProt L7MC74 38-125); assay: BLI
T2 sequence: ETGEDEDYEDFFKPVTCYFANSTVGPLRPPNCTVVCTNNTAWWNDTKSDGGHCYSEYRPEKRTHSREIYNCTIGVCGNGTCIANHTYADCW

[3] = target: T3, partially deglycosylated N-terminally tagged P672 (Rhipicephalus pulchellus, UniProt L7MC74 22-125); assay: BLI
T3 sequence: T1 sequence

[4] = target: T3, partially deglycosylated N-terminally …; assay: native MS

B1: CCL7 (ligand)
chain: not shown
notes: also called MCP-3
- binding result [1]: binds

B2: CCL1 (ligand, human, UniProt P22362 24-96, looked up)
chain: KSMQVPFSRCCFSFAEQEIPLRAILCYRNTSSICSNEGLIFKLKRGKEACALDTVGWVQRHRKMLRHCPSKRK
- binding result [1]: binds

B3: CCL16 (ligand, human, UniProt O15467 24-120, looked up)
chain: QPKVPEWVNTPSTCCLKYYEKVLPRRLVVGYRKALNCHLPAIIFVTKRNREVCTNPNDDWVQEYIKDPNLPLLPTRNLSTVKIITAKNGQPQLLNSQ
- binding result [1]: binds

B4: CCL3L1 (ligand, human, UniProt P16619 24-93, looked up)
chain: APLAADTPTACCFSYTSRQIPQNFIADYFETSSQCSKPSVIFLTKRGRQVCADPSEEWVQKYVSDLELSA
- binding result [1]: binds

B5: CCL8 (human chemokine panel) (ligand, UniProt P80075 24-99, looked up)
chain: QPDSVSIPITCCFNVINRKIPIQRLESYTRITNIQCPKEAVIFKTKRGKEVCADPKERWVRDSMKHLDQIFQNLKP
notes: also called MCP-2
- Kd [2]: 30.4 nM
- Kd [3]: 72.5 nM

B6: human CCL8 (residues Gln-24 to Pro-99), expressed in E. coli (ligand, UniProt P80075 24-99, looked up)
chain: B5 chain
notes: also called Purified CCL8
- stoichiometry N [4]: 1

B7: CCL3 (ligand, human, UniProt P10147 24-92, looked up)
chain: SLAADTPTACCFSYTSRQIPQNFIADYFETSSQCSKPGVIFLTKRSRQVCADPSEEWVQKYVSDLELSA
- binding result [1]: binds

B8: CCL18 (ligand, human, UniProt P55774 21-89, looked up)
chain: AQVGTNKELCCLVYTSWQIPQKFIVDYSETSPQCPKPGVILLTKRGRQICADPNKKWVQKYISDLKLNA
- Kd [1]: < 10 nM

B9: CCL14 (ligand, human, UniProt Q16627 20-93, looked up)
chain: TKTESSSRGPYHPSECCFTYTTYKIPRQRIMDYYETNSQCSKPGIVFITKRGHSVCTNPSDKWVQDYIKDMKEN
- Kd [1]: < 10 nM

B10: CCL23 (ligand, human, UniProt P55773 22-120, looked up)
chain: RVTKDAETEFMMSKLPLENPVLLDRFHATSADCCISYTPRSIPCSLLESYFETNSECSKPGVIFLTKKGRRFCANPSDKQVQVCMRMLKLDTRIKTRKN
- Kd [1]: < 10 nM

B11: CCL11 (ligand)
chain: not shown
- Kd [1]: < 10 nM
